PMC8406286, “A Recently Assembled Degradation Pathway for 2,3-Dichloronitrobenzene in Diaphorobacter sp. Strain JS3051” (mBio, 2021)

How the values were obtained:
Conditions in all cases: 50 mM Tris-HCl pH 8.0, 25°C
[1] = substrate: Cc1ccc(O)c(O)c1; assay: spectrophotometric ring-cleavage assay, A260; format: biochemical, Diaphorobacter sp. JS3051
[2] = substrate: Oc1ccccc1O; assay: spectrophotometric ring-cleavage assay, A260; format: biochemical, Diaphorobacter sp. JS3051
[3] = substrate: Cc1cccc(O)c1O; assay: spectrophotometric ring-cleavage assay, A260; format: biochemical, Diaphorobacter sp. JS3051
purified protein [4] = substrate: Oc1cccc(Cl)c1O; assay: purified protein
purified protein [5] = substrate: Oc1ccc(Cl)cc1O; assay: purified protein
purified protein [6] = substrate: Oc1ccc(Cl)c(Cl)c1O; assay: purified protein

B1: H6-DccA (Diaphorobacter sp. JS3051) (protein)
chain: MDKRVAEVAGAIVEAVRKILLDKRVTEAEYRAGVDYLTEVAQTRETAVLLDAFLNSTIIEGKAQRSRTSAPGMQGPYFLEGAPVVEGVLKTYDTDDHKPLIIRGTVRSDTGELLAGAVIDVWHSTPDGLYSGIHDNIPMDYYRGKLVTDSQGNFRVRTTMPVPYQIPYEGPTGRLLGHLGSHTWRPAHVHFKVRKDGFEPLTTQYYFEGGKWVDDDCCHGVTPDLITPETIEDGVRVMTLDFVIEREQAEQRKSATETVA
notes: full-length gene in pET-28a(+) (NdeI/BamHI), N-terminal 6xHis tag, purified from E. coli BL21(DE3)
[1]
  Km: 10.40 ± 1.35 µM
  Vmax: 4.63 µM/min
  kcat: 3.86 s⁻¹
  kcat/Km: 372000 M⁻¹ s⁻¹
[2]
  Km: 9.06 ± 0.88 µM
  Vmax: 0.44 µM/min
  kcat: 0.363 s⁻¹
  kcat/Km: 40000 M⁻¹ s⁻¹
[3]
  Km: 12.85 ± 1.52 µM
  Vmax: 0.63 µM/min
  kcat: 0.525 s⁻¹
  kcat/Km: 41700 M⁻¹ s⁻¹
Purified protein [4]
  Km: 2.58 ± 0.38 µM
  Vmax: 0.42 µM/min
  kcat: 0.35 s⁻¹
  kcat/Km: 135000 M⁻¹ s⁻¹
Purified protein [5]
  Km: 0.73 ± 0.06 µM
  Vmax: 0.78 µM/min
  kcat: 0.653 s⁻¹
  kcat/Km: 893000 M⁻¹ s⁻¹
Purified protein [6]
  Km: 0.48 ± 0.10 µM
  Vmax: 0.43 µM/min
  kcat: 0.355 s⁻¹
  kcat/Km: 737000 M⁻¹ s⁻¹
